The subject of data set [1] is postprandial plasma glucose (PPG). In words: Postprandial plasma glucose after standardized breakfast, single s.c. dose, phase I crossover study. It counts as in vivo, Japanese people with type 2 diabetes mellitus. The conditions noted are these: insulin glargine 5 U single s.c. dose; at 2 hours post-dose. On the procedure:
This was a phase I, single‐centre, randomized, open‐label, placebo‐controlled, four‐sequence, four‐period, four‐treatment crossover, single‐dose study.
Inclusion and exclusion criteria are provided in Appendix S1. […] There was a washout period of 7 to 14 days between dose administrations.
The secondary endpoints are described in Appendix S1.
The PD analyses were performed using the evaluable PD population. PPG–AUC0–2h was analysed using a linear mixed‐effects model with treatment group, sequence and treatment period as fixed effects, patient‐within‐sequence as a random effect, and baseline value as a covariate. The least squares (LS) mean differences were calculated between iGlarLixi groups and placebo, between the two iGlarLixi groups, and between iGlarLixi 5 U/5 μg and insulin glargine. The corresponding 95% confidence intervals and P values were calculated within the linear mixed‐effect model framework. P values < 0.05 were taken to indicate statistical significance. No adjustment for multiplicity was performed. […]
Secondary endpoints for PD included maximum postprandial plasma glucose (PPG) (PPG-Cmax), time of PPG-Cmax (PPG-tmax) and PPG-AUC0-5. In addition, serum insulin, serum C-peptide, and plasma glucagon concentrations were analyzed as secondary endpoints, and appropriate PD parameters such as AUCs were evaluated as applicable. […]

Data set [2] is described as follows: Safety: adverse events and hypoglycaemia. It counts as in vivo, Japanese people with type 2 diabetes mellitus. Particulars: n=20. As for the experimental part:
Patient safety was monitored from adverse events (AEs) spontaneously reported by a patient or noted by an investigator, including hypoglycemic events. All AEs, regardless of seriousness or relationship to the study drug, were recorded in each patient’s records from the time the informed consent form was signed. Treatment emergent AEs (TEAEs) were defined as AEs that occurred or worsened or became serious during the treatment phase.
Evaluation of safety was based on the review of individual values and descriptive statistics. All safety analyses were performed in the safety population. Individual values were flagged for potentially clinically significant abnormalities (PCSAs) if appropriate.

This is an account of results in paper PMC6771557 (Diabetes, Obesity & Metabolism, 2019).

As for insulin glargine, the “time of peak of mean plasma glucose concentration after breakfast start” value in data set [1] is “approximately 1 hour”. Moreover, the “Patients with any TEAE” value in data set [2] (insulin glargine 5U single s.c. dose, up to 24 hours after injection) amounted to 0 n. In data set [2] (insulin glargine 5U), the “Patients with any TEAE leading to permanent treatment discontinuation” value stood at 0 n, the “Patients with any severe TEAE” value was 0 n and the “Patients with any treatment emergent SAE” value was 0 n.
